Data taken from the supplement of paper PMC9112550, “Optimization of the antimicrobial peptide Bac7 by deep mutational scanning” (BMC Biology, 2022).

Test system: Escherichia coli TOP10
Experiment: shrunken log2 fold change of peptide-encoding DNA abundance (4.5 h post-induction vs induction); higher = less antimicrobial activity (less host growth inhibition)
Details: time post-induction: 4.5 h; library: site-saturation at positions 5, 18, 19, 20
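Note: peptides expressed intracellularly from a pBAD plasmid library in pooled LB shake-flask culture, induced with 0.3% L-arabinose, DNA abundance read by NGS, three biological replicates, DESeq2 with apeglm shrinkage.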

| Sequence | shrunken log2 fold change |
| --- | --- |
| RRIRSRPPRLPRPRPRPIKVPRP | -0.181 |
| RRIRKRPPRLPRPRPRPQKHPRP | 0.224 |
| RRIRARPPRLPRPRPRPQRQPRP | 0.24 |
| RRIRHRPPRLPRPRPRPGYKPRP | -0.00663 |
| RRIRSRPPRLPRPRPRPDMAPRP | -0.0366 |
| RRIRGRPPRLPRPRPRPNHTPRP | -0.144 |
| RRIRKRPPRLPRPRPRPWGSPRP | -0.034 |
| RRIRGRPPRLPRPRPRPQLIPRP | 0.139 |
| RRIRARPPRLPRPRPRPSGVPRP | -0.136 |
| RRIRFRPPRLPRPRPRPNPHPRP | -0.428 |
| RRIRTRPPRLPRPRPRPDHDPRP | 0.0257 |
| RRIRCRPPRLPRPRPRPRMTPRP | 0.296 |
| RRIRHRPPRLPRPRPRPLINPRP | -0.201 |
| RRIRIRPPRLPRPRPRPFGDPRP | -0.0112 |
| RRIRGRPPRLPRPRPRPCVTPRP | 1.34 |
| RRIRRRPPRLPRPRPRPKENPRP | 0.325 |
| RRIRNRPPRLPRPRPRPGHNPRP | -0.64 |
| RRIRVRPPRLPRPRPRPKQLPRP | 0.0267 |
| RRIRARPPRLPRPRPRPMNKPRP | -0.00986 |
| RRIRQRPPRLPRPRPRPPEMPRP | -0.162 |
| RRIRCRPPRLPRPRPRPDKKPRP | -0.132 |
| RRIRNRPPRLPRPRPRPEIKPRP | 0.101 |
| RRIRMRPPRLPRPRPRPLCWPRP | 1.15 |
| RRIRCRPPRLPRPRPRPQNYPRP | -0.485 |
| RRIRTRPPRLPRPRPRPRRFPRP | -0.115 |

| Sequence | shrunken log2 fold change |
| --- | --- |
| RRIRFRPPRLPRPRPRPHHPPRP | -0.374 |
| RRIRQRPPRLPRPRPRPMCPPRP | 0.00821 |
| RRIRHRPPRLPRPRPRPKYTPRP | 0.973 |
| RRIRARPPRLPRPRPRPRVKPRP | 0.488 |
| RRIRFRPPRLPRPRPRPAFDPRP | 0.128 |
| RRIRERPPRLPRPRPRPETWPRP | -0.0594 |
| RRIRVRPPRLPRPRPRPKHVPRP | -0.101 |
| RRIRKRPPRLPRPRPRPASCPRP | 0.431 |
| RRIRNRPPRLPRPRPRPLVYPRP | -0.943 |
| RRIRCRPPRLPRPRPRPKDDPRP | 0.146 |
| RRIRPRPPRLPRPRPRPDCIPRP | -0.391 |
| RRIRWRPPRLPRPRPRPEEGPRP | -0.00968 |
| RRIRPRPPRLPRPRPRPNSRPRP | -0.1 |
| RRIRDRPPRLPRPRPRPAWDPRP | 0.4 |
| RRIRGRPPRLPRPRPRPVRTPRP | 1.3 |
| RRIRSRPPRLPRPRPRPRSTPRP | 0.0523 |
| RRIRVRPPRLPRPRPRPIVIPRP | 0.0265 |
| RRIRIRPPRLPRPRPRPRQPPRP | -0.0694 |
| RRIRHRPPRLPRPRPRPHMAPRP | -0.0236 |
| RRIRLRPPRLPRPRPRPDWGPRP | 0.222 |
| RRIRTRPPRLPRPRPRPFWYPRP | -0.374 |
| RRIRPRPPRLPRPRPRPMAQPRP | 0.177 |
| RRIRFRPPRLPRPRPRPCTWPRP | -0.0991 |
| RRIRPRPPRLPRPRPRPFDVPRP | 0.0778 |
| RRIRIRPPRLPRPRPRPKRIPRP | 0.0468 |

| Sequence | shrunken log2 fold change |
| --- | --- |
| RRIRFRPPRLPRPRPRPYSHPRP | -1.77 |
| RRIRIRPPRLPRPRPRPCIRPRP | -0.0379 |
| RRIRRRPPRLPRPRPRPKQHPRP | 0.302 |
| RRIRCRPPRLPRPRPRPSCMPRP | -0.313 |
| RRIRMRPPRLPRPRPRPVYDPRP | -0.399 |
| RRIRQRPPRLPRPRPRPLAEPRP | -0.0181 |
| RRIRMRPPRLPRPRPRPYKGPRP | -0.046 |
| RRIRHRPPRLPRPRPRPDMTPRP | -0.06 |
| RRIRGRPPRLPRPRPRPTYFPRP | 0.0176 |
| RRIRPRPPRLPRPRPRPFLSPRP | -0.312 |
| RRIRARPPRLPRPRPRPDRMPRP | 0.0124 |
| RRIRCRPPRLPRPRPRPCVTPRP | 0.0974 |
| RRIRIRPPRLPRPRPRPYIMPRP | -1.15 |
| RRIRTRPPRLPRPRPRPGGPPRP | 0.257 |
| RRIRSRPPRLPRPRPRPVMIPRP | -0.0753 |
| RRIRCRPPRLPRPRPRPMCCPRP | -0.038 |
| RRIRCRPPRLPRPRPRPQTDPRP | -0.00613 |
| RRIRWRPPRLPRPRPRPGMIPRP | -0.0827 |
| RRIRTRPPRLPRPRPRPMDKPRP | -0.528 |
| RRIRNRPPRLPRPRPRPMACPRP | -0.109 |
| RRIRGRPPRLPRPRPRPTTTPRP | 1.07 |
| RRIRCRPPRLPRPRPRPEMHPRP | 0.304 |
| RRIRRRPPRLPRPRPRPTLCPRP | 0.581 |
| RRIRDRPPRLPRPRPRPLVVPRP | 0.102 |
| RRIRPRPPRLPRPRPRPMLLPRP | 0.0229 |

| Sequence | shrunken log2 fold change |
| --- | --- |
| RRIRRRPPRLPRPRPRPVDDPRP | -0.0484 |
| RRIRFRPPRLPRPRPRPHCNPRP | -0.548 |
| RRIRARPPRLPRPRPRPRDMPRP | 1.52 |
| RRIRNRPPRLPRPRPRPMSNPRP | 0.0527 |
| RRIRFRPPRLPRPRPRPCRPPRP | 0.0632 |
| RRIRARPPRLPRPRPRPWEAPRP | 0.221 |
| RRIRQRPPRLPRPRPRPWQLPRP | -0.0199 |
| RRIRDRPPRLPRPRPRPANDPRP | -0.176 |
| RRIRGRPPRLPRPRPRPMGSPRP | -0.0284 |
| RRIRDRPPRLPRPRPRPVIPPRP | 0.471 |
| RRIRIRPPRLPRPRPRPFKAPRP | -0.431 |
| RRIRFRPPRLPRPRPRPPVNPRP | 0.147 |
| RRIRVRPPRLPRPRPRPQMPPRP | 0.204 |
| RRIRKRPPRLPRPRPRPQRAPRP | 0.944 |
| RRIRGRPPRLPRPRPRPCYTPRP | 0.498 |
| RRIRMRPPRLPRPRPRPDVKPRP | 0.343 |
| RRIRARPPRLPRPRPRPGIFPRP | 0.468 |
| RRIRSRPPRLPRPRPRPEWLPRP | 0.625 |
| RRIRARPPRLPRPRPRPPLYPRP | 0.606 |
| RRIRARPPRLPRPRPRPDNKPRP | -0.24 |
| RRIRKRPPRLPRPRPRPRNGPRP | 0.157 |
| RRIRFRPPRLPRPRPRPFKGPRP | -0.23 |
| RRIRNRPPRLPRPRPRPYYIPRP | -0.131 |
| RRIRYRPPRLPRPRPRPSMFPRP | -1.02 |
| RRIRQRPPRLPRPRPRPEIMPRP | 0.103 |

| Sequence | shrunken log2 fold change |
| --- | --- |
| RRIRRRPPRLPRPRPRPCHMPRP | -0.237 |
| RRIRVRPPRLPRPRPRPEAIPRP | -0.0125 |
| RRIRTRPPRLPRPRPRPGKGPRP | 0.0141 |
| RRIRLRPPRLPRPRPRPKHMPRP | -0.0682 |
| RRIRFRPPRLPRPRPRPIMSPRP | -0.0555 |
| RRIRGRPPRLPRPRPRPRNKPRP | 0.765 |
| RRIRHRPPRLPRPRPRPHRRPRP | 0.0762 |
| RRIRLRPPRLPRPRPRPTRHPRP | 0.156 |
| RRIRQRPPRLPRPRPRPENIPRP | -0.0809 |
| RRIRRRPPRLPRPRPRPADEPRP | 2.06 |
| RRIRDRPPRLPRPRPRPDNMPRP | 0.0341 |
| RRIRNRPPRLPRPRPRPICPPRP | -0.0189 |
| RRIRLRPPRLPRPRPRPPDAPRP | 0.524 |
| RRIRRRPPRLPRPRPRPPVFPRP | 0.55 |
| RRIRDRPPRLPRPRPRPVRSPRP | 0.155 |
| RRIRIRPPRLPRPRPRPIKDPRP | -0.467 |
| RRIRSRPPRLPRPRPRPYVIPRP | -0.292 |
| RRIRTRPPRLPRPRPRPVCCPRP | -0.254 |
| RRIRRRPPRLPRPRPRPWFYPRP | -0.00712 |
| RRIRLRPPRLPRPRPRPNTFPRP | -0.348 |
| RRIRARPPRLPRPRPRPAWVPRP | 0.235 |
| RRIRIRPPRLPRPRPRPNVFPRP | -0.27 |
| RRIRYRPPRLPRPRPRPVKKPRP | -0.0286 |
| RRIRPRPPRLPRPRPRPKLWPRP | 0.683 |
| RRIRFRPPRLPRPRPRPPGEPRP | 0.421 |

| Sequence | shrunken log2 fold change |
| --- | --- |
| RRIRWRPPRLPRPRPRPDIQPRP | 0.27 |
| RRIRMRPPRLPRPRPRPKDEPRP | 1.75 |
| RRIRWRPPRLPRPRPRPANIPRP | -0.884 |
| RRIRERPPRLPRPRPRPDTPPRP | -0.562 |
| RRIRMRPPRLPRPRPRPYERPRP | -0.0671 |
| RRIRLRPPRLPRPRPRPAPMPRP | 0.118 |
| RRIRARPPRLPRPRPRPGASPRP | 0.978 |
| RRIRHRPPRLPRPRPRPLPAPRP | 0.192 |
| RRIRERPPRLPRPRPRPQNQPRP | -0.612 |
| RRIRNRPPRLPRPRPRPRWKPRP | -0.109 |
| RRIRHRPPRLPRPRPRPRNAPRP | 0.184 |
| RRIRYRPPRLPRPRPRPTSKPRP | 0.902 |
| RRIRSRPPRLPRPRPRPQFAPRP | 0.105 |
| RRIRDRPPRLPRPRPRPPRTPRP | 0.389 |
| RRIRSRPPRLPRPRPRPQISPRP | -0.00331 |
| RRIRKRPPRLPRPRPRPFIAPRP | -0.0583 |
| RRIRMRPPRLPRPRPRPQSKPRP | 0.0671 |
| RRIRTRPPRLPRPRPRPCELPRP | -0.271 |
| RRIRFRPPRLPRPRPRPDCDPRP | -0.147 |
| RRIRDRPPRLPRPRPRPFIPPRP | -0.334 |
| RRIRARPPRLPRPRPRPEHEPRP | 0.00993 |
| RRIRERPPRLPRPRPRPGQVPRP | 0.126 |
| RRIRSRPPRLPRPRPRPWNWPRP | -0.328 |
| RRIRSRPPRLPRPRPRPKKQPRP | 0.0417 |
| RRIRCRPPRLPRPRPRPQTGPRP | -0.144 |
